Source: patent US20260045319A1 (UNIVERSITY COURT OF THE UNIVERSITY OF ST ANDREWS, published 2026)

Molecular target: the molecule itself
Experiment: size exclusion chromatography on a column calibrated with protein standards; self-association

B1: Dsg407 from Cyanophage Syn10 GenBank: AGH56623.1 (enzyme)
chain: MKIESVAIVGGGSSGWMTAAALSKLCPQLEIALIEDPNIKTVGVGESTLGHFNKFLHLLDLKDEDWMPACNATYKNSIRFTNFREGKGEVFEYPFGPSLDVSFFSQTDGINTWGKLANKYPEDFPPETFARFVNSNTYLAEHNRLTRNKDNKIPNFNFDWDTAYHIDAELFGQYLKEKIALPNGVKHIQGKVTGYQKESPNNHNFKYIILDQETAIFADLYIDCTGFKSLLLGEFMGEAFSPFSKKLANDKAMATRIPYENREEEMHNVTDCHAMKNGWVWNIPLWNRIGTGYCYSSRFVSKDDAEAEFREHLGERGKDAKIFHIDIGHGKRTRAWVNNCVGIGLSYGFIEPLESTGLLTTHENIENLVYLINQRDGYVTQAERDGFNYTCDHQIDSFSDFVAMHYAYSMRTDTPYWKWCTQMCNYMPESMGPHRQKQSTWQDLSTDTIGLNTWHINHNGISFIIAGHGLRPQSYDKLSEVLLKRNNESDYYYEDIRKDWLKHYESMVEYVKTLPTHYEFLRDEIYGSAE
notes: also called hypothetical protein CPUG_00131; viral halogenase Dsg407
binding result: binds
